Measured values published in US7189689.

Molecular target: T1, lecithin:cholesterol acyltransferase (LCAT), purified from human plasma (human, UniProt P04180 25-440)
T1 sequence (looked up): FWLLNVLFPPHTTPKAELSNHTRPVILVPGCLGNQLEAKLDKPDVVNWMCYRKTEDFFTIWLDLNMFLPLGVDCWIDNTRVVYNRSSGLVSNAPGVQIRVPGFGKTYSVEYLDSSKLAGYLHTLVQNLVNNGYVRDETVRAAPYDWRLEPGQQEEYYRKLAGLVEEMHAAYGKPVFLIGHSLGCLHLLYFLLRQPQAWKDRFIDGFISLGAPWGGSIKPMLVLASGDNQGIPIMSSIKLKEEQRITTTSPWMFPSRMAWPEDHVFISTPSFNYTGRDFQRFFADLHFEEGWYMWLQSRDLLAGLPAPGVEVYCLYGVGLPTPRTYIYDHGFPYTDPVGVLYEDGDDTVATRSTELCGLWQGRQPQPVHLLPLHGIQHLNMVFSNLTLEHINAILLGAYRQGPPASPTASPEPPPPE
Assay: cell-based or functional assay

In the case of DWLKAFYDKVFEKFKEFF [peptide 241], the “ACTIVITY (%) LCAT” value is reported as 8%.

In the case of DWFKAFYDKVFEKFKEFF [peptide 237], the “ACTIVITY (%) LCAT” value is reported as 11%.

In the case of EWLKAFYKKVLEKLKELF [peptide 247], the “ACTIVITY (%) LCAT” value is reported as 3%.

For EWLKAEYEKVEEKLKELF [peptide 245], the “ACTIVITY (%) LCAT” value was 4%.

In the case of EWLKAEYEKVLEKLKELF [peptide 246], the “ACTIVITY (%) LCAT” value is reported as 4%.

For EWLKAFYEKVLEKLKELF [peptide 244], the “ACTIVITY (%) LCAT” value was 5%.

In the case of EWLEAFYKKVLEKLKELF [peptide 242], the “ACTIVITY (%) LCAT” value is reported as 7%.

With DWFKAFYDKFFEKFKEFF [peptide 243] the “ACTIVITY (%) LCAT” value was 5%.
